Experimental data published in publication PMC11539920 (Nature, 2024).
Where two headings read alike, the source gives them in different places.

What was measured:
BRCA1–BARD1 complex [1] = molecular target: T1, BRCA1–BARD1 complex (human, UniProt P38398 1-1863; Q99728 1-777); assay: pull-down
[2] = molecular target: BRCA1 (subunit of the purified BRCA1–BARD1 complex) (human, UniProt P38398 1-1863); assay: mass photometry
BRCA1–BARD1 complex [3] = molecular target: T1, BRCA1–BARD1 complex; assay: pull-down; remark: listed apart in the source

T1 sequence (P38398 whole entry, one chain of several): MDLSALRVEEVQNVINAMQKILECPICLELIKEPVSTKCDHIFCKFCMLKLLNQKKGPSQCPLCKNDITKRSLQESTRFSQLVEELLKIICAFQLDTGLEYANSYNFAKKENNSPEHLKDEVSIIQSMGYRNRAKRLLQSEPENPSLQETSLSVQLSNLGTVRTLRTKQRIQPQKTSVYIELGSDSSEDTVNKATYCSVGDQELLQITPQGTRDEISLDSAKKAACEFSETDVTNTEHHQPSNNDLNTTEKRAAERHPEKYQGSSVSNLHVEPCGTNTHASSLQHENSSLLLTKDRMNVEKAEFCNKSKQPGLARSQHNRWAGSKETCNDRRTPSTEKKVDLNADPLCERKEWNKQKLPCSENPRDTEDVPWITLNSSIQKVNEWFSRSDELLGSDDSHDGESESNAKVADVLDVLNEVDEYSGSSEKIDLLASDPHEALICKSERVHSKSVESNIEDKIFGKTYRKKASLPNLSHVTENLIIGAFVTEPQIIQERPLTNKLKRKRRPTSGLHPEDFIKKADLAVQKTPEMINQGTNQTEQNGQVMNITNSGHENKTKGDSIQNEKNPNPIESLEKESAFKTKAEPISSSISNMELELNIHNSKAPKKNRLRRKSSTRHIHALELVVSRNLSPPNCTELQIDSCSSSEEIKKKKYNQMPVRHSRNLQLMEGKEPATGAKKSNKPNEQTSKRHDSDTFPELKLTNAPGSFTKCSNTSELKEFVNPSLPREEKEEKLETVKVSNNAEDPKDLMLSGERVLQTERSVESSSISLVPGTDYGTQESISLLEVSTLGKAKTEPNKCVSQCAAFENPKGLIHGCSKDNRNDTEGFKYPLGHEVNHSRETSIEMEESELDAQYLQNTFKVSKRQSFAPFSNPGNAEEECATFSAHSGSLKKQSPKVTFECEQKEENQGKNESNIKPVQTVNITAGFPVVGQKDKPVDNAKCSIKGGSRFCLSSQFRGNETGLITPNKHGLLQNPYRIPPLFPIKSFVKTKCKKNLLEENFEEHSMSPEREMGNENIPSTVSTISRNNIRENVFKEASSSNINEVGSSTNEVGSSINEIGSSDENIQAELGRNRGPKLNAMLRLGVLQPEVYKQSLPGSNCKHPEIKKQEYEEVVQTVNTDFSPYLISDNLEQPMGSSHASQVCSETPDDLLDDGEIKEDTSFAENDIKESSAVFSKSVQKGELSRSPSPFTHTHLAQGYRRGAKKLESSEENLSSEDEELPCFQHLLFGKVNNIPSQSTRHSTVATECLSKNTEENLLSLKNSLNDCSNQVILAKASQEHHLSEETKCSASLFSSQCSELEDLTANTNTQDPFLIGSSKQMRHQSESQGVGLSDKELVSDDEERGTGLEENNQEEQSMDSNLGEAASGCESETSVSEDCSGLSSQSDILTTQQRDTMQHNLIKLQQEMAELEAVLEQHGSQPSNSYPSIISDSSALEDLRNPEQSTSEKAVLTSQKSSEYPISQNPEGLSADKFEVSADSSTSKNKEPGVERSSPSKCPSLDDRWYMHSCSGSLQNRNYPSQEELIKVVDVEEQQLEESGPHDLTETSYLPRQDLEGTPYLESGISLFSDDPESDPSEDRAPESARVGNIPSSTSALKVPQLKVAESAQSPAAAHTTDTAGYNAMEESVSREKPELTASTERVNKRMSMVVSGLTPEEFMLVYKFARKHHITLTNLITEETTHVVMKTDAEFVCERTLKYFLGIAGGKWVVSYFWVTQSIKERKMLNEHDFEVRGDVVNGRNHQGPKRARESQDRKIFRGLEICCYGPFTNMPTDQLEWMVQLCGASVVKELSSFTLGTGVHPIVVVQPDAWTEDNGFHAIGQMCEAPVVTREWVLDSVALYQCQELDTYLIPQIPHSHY
Sequence of BRCA1 (subunit of the purified BRCA1–BARD1 complex) (P38398 whole entry, one chain of several): as above

| Binder | binding result (BRCA1–BARD1 complex [1]) | also measured |
| --- | --- | --- |
| GST-tagged BLM fragment, residues 636–857 (domain or fragment) not shown | binds |  |
| GST-tagged BLM fragment, residues 636–1298 (domain or fragment) not shown | binds |  |
| GST-tagged BLM fragment, residues 2–635 (domain or fragment, human, UniProt P54132 2-635, looked up) AAVPQNNLQEQLERHSARTLNNKLSLSKPKFSGFTFKKKTSSDNNVSVTNVSVAKTPVLRNKDVNVTEDFSFSEPLPNTTNQQRVKDFFKNAPAGQETQRGGSKSLLPDFLQTPKEVVCTTQNTPTVKKSRDTALKKLEFSSSPDSLSTINDWDDMDDFDTSETSKSFVTPPQSHFVRVSTAQKSKKGKRNFFKAQLYTTNTVKTDLPPPSSESEQIDLTEEQKDDSEWLSSDVICIDDGPIAEVHINEDAQESDSLKTHLEDERDNSEKKKNLEEAELHSTEKVPCIEFDDDDYDTDFVPPSPEEIISASSSSSKCLSTLKDLDTSDRKEDVLSTSKDLLSKPEKMSMQELNPETSTDCDARQISLQQQLIHVMEHICKLIDTIPDDKLKLLDCGNELLQQRNIRRKLLTEVDFNKSDASLLGSLWRYRPDSLDGPMEGDSCPTGNSMKELNFSHLPSNSVSPGDCLLTTTLGKTGFSATRKNLFERPLFNTHLQKSFVSSNWAETPRLGKKNESSYFPGNVLTSTAVKDQNKHTASINDLERETQPSYDIDNFDIDDFDDDDDWEDIMHNLAASKSSTAAYQPIKEGRPIKSVSERLSSAKTDCLPVSSTAQNINFSESIQNYTDKSAQNLA | binds |  |
| BARD1 (subunit of the purified BRCA1–BARD1 complex) (natural protein, human, UniProt Q99728 1-777, looked up) MPDNRQPRNRQPRIRSGNEPRSAPAMEPDGRGAWAHSRAALDRLEKLLRCSRCTNILREPVCLGGCEHIFCSNCVSDCIGTGCPVCYTPAWIQDLKINRQLDSMIQLCSKLRNLLHDNELSDLKEDKPRKSLFNDAGNKKNSIKMWFSPRSKKVRYVVSKASVQTQPAIKKDASAQQDSYEFVSPSPPADVSERAKKASARSGKKQKKKTLAEINQKWNLEAEKEDGEFDSKEESKQKLVSFCSQPSVISSPQINGEIDLLASGSLTESECFGSLTEVSLPLAEQIESPDTKSRNEVVTPEKVCKNYLTSKKSLPLENNGKRGHHNRLSSPISKRCRTSILSTSGDFVKQTVPSENIPLPECSSPPSCKRKVGGTSGRKNSNMSDEFISLSPGTPPSTLSSSSYRRVMSSPSAMKLLPNMAVKRNHRGETLLHIASIKGDIPSVEYLLQNGSDPNVKDHAGWTPLHEACNHGHLKVVELLLQHKALVNTTGYQNDSPLHDAAKNGHVDIVKLLLSYGASRNAVNIFGLRPVDYTDDESMKSLLLLPEKNESSSASHCSVMNTGQRRDGPLVLIGSGLSSEQQKMLSELAVILKAKKYTEFDSTVTHVVVPGDAVQSTLKCMLGILNGCWILKFEWVKACLRRKVCEQEEKYEIPEGPRRSRLNREQLLPKLFDGCYFYLWGTFKHHPKDNLIKLVTAGGGQILSRKPKPDSDVTQTINTVAYHARPDSDQRFCTQYIIYEDLCNYHPERVRQGKVWKAPSSWFIDCVMSFELLPLDS |  | stoichiometry N [2]: 1 |
| GFP-WRN (enzyme) not shown |  | binding result (BRCA1–BARD1 complex [3]): binds |
